Publication PMC8887654 (ACS infectious diseases, 2022)
Where “and” joins values, the source holds several entries; their conditions need not be identical. Equal values may be shown once.

Legend:
subgroup 2b PLpros = assay: PLpro inhibition IC50, text summary over all three PLpros; assay type: biochemical; conditions: read-out: IC50 values; text summary for the most potent inhibitors
RPTEC = conditions: human
BEAS-2B cells = conditions: human
BtSCoV-Rf1.2004 PLpro = assay type: biochemical
SARS-2 PLpro = conditions: cited from earlier work
SARS PLpro = conditions: cited from earlier work
MERS PLpro = conditions: cited from earlier work
MHV PLP2 = conditions: cited from earlier work

Compound | IC50 (subgroup 2b PLpros) | CC50 relative to IC50 (RPTEC) | CC50 relative to IC50 (BEAS-2B cells) | Kcat (BtSCoV-Rf1.2004 PLpro) | Km (BtSCoV-Rf1.2004 PLpro) | Kcat (SARS-2 PLpro) | Km (SARS-2 PLpro) | Kcat (SARS PLpro) | Km (SARS PLpro) | Kcat (MERS PLpro) | Km (MERS PLpro) | Kcat (MHV PLP2) | Km (MHV PLP2) | observed rate (no maximum turnover calculable) (BtSCoV-Rf1.2004 PLpro)
Cc1ccc(N)cc1C(=O)N[C@H](C)c1cccc2ccccc12 [GRL0617, 5-Amino-2-methyl-N-[(R)-1-(1-naphthyl)ethyl]benzamide] | < 10 µM | more than five times the IC50 | more than five times the IC50 | – | – | – | – | – | – | – | – | – | – | –
Ubiquitin–7-amino-4-methylcourmarin [Ub-AMC] | – | – | – | 0.232 ± 0.0067 s⁻¹ | 14.3 ± 0.9 µM | 0.167 ± 0.013 s⁻¹ | 7.9 ± 1.4 µM | 1.26 ± 0.135 s⁻¹ | 50.6 ± 7.4 µM | 0.313 ± 0.02 s⁻¹ | 14.3 ± 2 µM | 0.83 ± 0.0483 s⁻¹ | 1.3 ± 0.2 µM | –
human ISG15-7-amino-4-methylcourmarin [ISG15-AMC] | – | – | – | – | – | 0.667 ± 0.03 s⁻¹ | 3.9 ± 0.5 µM | 7.27 s⁻¹ and 7.27 ± 0.667 s⁻¹ | 15.1 ± 2.4 µM | 0.543 ± 0.03 s⁻¹ | 3.3 ± 0.5 µM | – | – | 595 min⁻¹
